Experimental data as given in paper PMC2729365 (Nature structural & molecular biology, 2009).

How the values were obtained:
[1] = target: the molecule itself; assay: AUC
[2] = target: the molecule itself; assay: AUC; remark: listed apart in the source

B1: GluR6 amino terminal domain (GluR6 R1R2 ATD, residues 1-389) expressed in wild type HEK293 cells (domain or fragment)
chain: TTHVLRFGGIFEYVESGPMGAEELAFRFAVNTINRNRTLLPNTTLTYDTQKINLYDSFEASKKACDQLSLGVAAIFGPSHSSSANAVQSICNALGVPHIQTRWKHQVSDNKDSFYVSLYPDFSSLSRAILDLVQFFKWKTVTVVYDDSTGLIRLQELIKAPSRYNLRLKIRQLPADTKDAKPLLKEMKRGKEFHVIFDCSHEMAAGILKQALAMGMMTEYYHYIFTTLDLFALDVEPYRYSGVNMTGFRILNTENTQVSSIIEKWSMERLQAPPKPDSGLLDGFMTTDAALMYDAVHVVSVAVQQFPQMTVSSLQCNRHKPWRFGTRFMSLIKEAHWEGLTGRITFNKTNGLRTDFDLDVISLKEEGLEKIGTWDPASGLNMTESQKGK
modifications: N-linked glycans at five sites, non uniform (complex) glycosylation
[1]
  Kd: 11.3 µM
[2]
  stoichiometry N: 2
